Measurements taken from the RNAGym collection of RNA variant scans (doi:10.1073/pnas.2313332121).
This sample holds only a part of the variants without activity.

B1: TPR 5TU (parent)
chain: GGAUCUUCUCGAUCUAACAAAAAAGACAAAUCUGCCACAAAGCUUGAGAGCAUCUUCGGAUGCAGAGGCGGCAGCCUUCGGUGGCGCGAUAGCGCCAACGUUCUCAACUAUGACACGCAAAACGCGUGCUCCGUUGAAUGGAGUUUAUCAUG

Variants of: B1
Assay: polymerase ribozyme fitness, log enrichment relative to wild type (log ratio); higher = more active; in vitro selection for triplet polymerase activity
Outline: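 Both subunits of a heterodimeric triplet polymerase ribozyme were given their own mutant library, built by PCR and transcribed. Each library was annealed with a biotinylated primer, the partner subunit and triplets, incubated frozen at −7 °C, and its extended constructs gel-excised, captured on streptavidin beads and amplified by RT-PCR, all in one round done in triplicate. Fitness is the logarithm of genotype enrichment relative to wild-type enrichment, with replicates averaged by inverse-variance weighting. That logarithm is base 2, and Illumina-sequenced genotypes needed ≥10 input reads and ≥1 read per output.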

Point of comparison: U55A C95U, “polymerase ribozyme fitness (log ratio)” value -0.137. Against it:
- C57A C96U C108U G140A — lower, ≤ -4.2
- C54U C85G A91U — lower, ≤ -4.2
- U55A C76G G100C U109A A120G — lower, ≤ -4.2
- U56C U78G C85U A89G — lower, ≤ -4.2
- U56G U102C — lower, -1.91
- U55A G83A — lower, -0.501
- U56A C96U A119U — lower, -0.585
- U55C C95U C103A — lower, -1.54
- U55A C96G G143A — lower, -2.1
- C57A G65A — lower, -0.56
- C54U U90C G94A C131U — lower, ≤ -4.2
- U55G C87A C93A C99U U134A — lower, ≤ -4.2
- C57A C72U C99A C103G G140C — lower, ≤ -4.2
- C54U C96A A97G — lower, -1.12
- U55A A60G C99G G141C — lower, -2.6
- U55A C63U A142U — lower, -0.552
- U56A G100U — lower, -4.09
- U56A G68C U77A C96G U104G C108U G141C — lower, ≤ -4.2
- C54U G86C — lower, -3.47
- U55C G62A A64C C72G G140U U144A — lower, ≤ -4.2
- U56A G58U C63A A115U C118U — lower, -1.35
- U55A G126C — higher, 1.42
- U55A G126A — lower, -1.02
- U56C C93U U101G C103U G136C — lower, -4.09
- U56A C69A — lower, -1.46
- C54U U82G — within 0.2 log units, 0.0533
- C54U C85G C93U A97C A137U U139G — lower, ≤ -4.2
- U55A A98U — within 0.2 log units, -0.0691
- C57A G62A G86A A113G A120U U127C G136A A142C — lower, ≤ -4.2
- U56C A64U C93A C95U G133C — lower, ≤ -4.2
- U56A G74A A138G — lower, ≤ -4.2
- U55A A64G G84A C93G A137G A142U — lower, ≤ -4.2
- C57A G58U C76A C85U C96U A147G — lower, -3.03
- U56A C57A C85G — lower, -0.79
- U55C G59A C96A — lower, -3.02
- U55G G92A — lower, -3.13
- U55G G92C — within 0.2 log units, -0.157
- C54U U56A G58A C85U C95A — lower, -1.2
- U55A C76A — lower, -0.81
- U55A G62U C63G C87U A98U A120U C149G — lower, ≤ -4.2
- C54U U135A G136C — lower, -3.76
- U56A G81U U101G — lower, -0.889
- U55A C87A C108G — lower, ≤ -4.2
- U55G A89G G94A A119U — lower, -1.9
- U55A G84A G143A — lower, -0.776
- U56G C69U A73U U134C G141U U146A — lower, -2.72
- C57A C96A — lower, -0.383
- U55C A98G A113U A142G — lower, -2.98
- U56A C99G G140U — lower, -3.99
- U55A C85G C114A A142C U151A — lower, -4.19
- U55A G58C A97G — higher, 0.512
- U55A C69G U146A — lower, -3.62
- C54U G92U — lower, -0.757
- C54U G92A — lower, -3
- U55A A89C A119C — lower, -0.892
- C57A A121U — within 0.2 log units, -0.0826
- U55G A89U C132G — lower, -3.98
- U55G C69U — lower, -2.89
- C54U C103A — lower, -2.22
- U55C U127A U139G — lower, -3.31
- U55A C105G — lower, -1.73
- U55A C105A — lower, -0.692
- U55G C118U — lower, -1.23
- U56G G84U — lower, -2.16
- U56C C85G U135C A142U G152A — lower, ≤ -4.2
- U55A C95A G143A U144C — lower, -3.04
- U55G A60G G133U G136C — lower, ≤ -4.2
- U55G C93A A98U A142U — lower, -3.92
- U55A U61C G94U — lower, ≤ -4.2
- C54U U104G — lower, -1.21
- U55G G62A — lower, -2.48
- U56A G59U C63G C87U — higher, 1.72
- U56A A73G C76U — higher, 0.764
- U56A G58U A119G C131A — lower, -2.04
- U55A C87G U101G G143A — lower, ≤ -4.2
- U55A U77G U134C U139C — lower, ≤ -4.2
- U55A U139A — lower, -4.05
- C54U G68U U82A G94A A97C G117A A138C G141A — lower, ≤ -4.2
- U55A U56A C69U C79U G86A A91U A106C A121G C125U A142C — lower, ≤ -4.2
- C57A C85A A107G — lower, ≤ -4.2
- U55A C57U G81A G84A — lower, -0.555
- U56C G74U C76U G84U C125G A138C — lower, ≤ -4.2
- U55A G59A C75U G92U C99G C129G U139G — lower, ≤ -4.2
